The text below walks through data of patent publication US20070128190A1 (GLENMARK PHARMACEUTICALS S A, published 2007).

Assay [1] addresses T1, human platelet α2β1 integrin (immobilized on microtiter plates) (human, UniProt P17301 30-1181; P05556 21-798).
T1 construct: plates custom-coated with human platelet α2β1 by GTI Inc; also called immobilized α2β1 integrin; α2β1-coated plates
The assay can be described thus: competition with Eu-humanized TMC-2206 on human platelet α2β1-coated plate. The procedure:
The MAb/bicarbonate mixture (0.250 mL) was gently mixed into a vial containing 0.2 mg N¹-(p-isothiocyanatobenzyl)-diethylenetriamine-N¹,N²,N³,N³-tetraacetic acid chelated with Eu³⁺ (Eu-N1-ITC; Perkin Elmer Life Sciences) and incubated overnight at 4° C. without stirring. The labeled antibody mixture was applied to a PD-10 column (GE Biosciences, Piscataway, N.J.) pre-equilibrated with Running Buffer (50 mM Tris, pH 7.4 and 138 mM NaCl). Fractions (0.5 mL) were collected and assayed for total protein (Bradford reagent; Bio-Rad Laboratories, Hercules, Calif.) using a SpectraMax 384 absorbance plate reader and for europium after 1:10.000 dilution in DELFIA Enhancement Solution (Perkin-Elmer) by time-resolved fluorescence (TRF) using a Victor2 multi-label plate reader (Perkin Elmer). The fractions that were positive for both protein and europium label were pooled, applied to a new PD-10 column, and samples collected and assayed for total protein and for europium content by TRF calibrated against a europium standard solution (Perkin-Elmer) to calculate the fluor : protein ratio. […] The plate was shaken (Titer Plate Shaker, speed setting of 5, 5 minutes at room temperature) and TRF intensities were read using the Victor2 multi-label plate reader. The KD values were calculated by Scatchard analyses.

In assay [2] the target is T2, GST-human α2 I domain fusion protein (human, UniProt P17301 153-368).
T2 construct: the reverse primer ends at ...SIEGTV; also called GST-α2 I domain; hα2I; not shown: glutathione S-transferase tag encoded by vector pGEX-2TK
T2 sequence: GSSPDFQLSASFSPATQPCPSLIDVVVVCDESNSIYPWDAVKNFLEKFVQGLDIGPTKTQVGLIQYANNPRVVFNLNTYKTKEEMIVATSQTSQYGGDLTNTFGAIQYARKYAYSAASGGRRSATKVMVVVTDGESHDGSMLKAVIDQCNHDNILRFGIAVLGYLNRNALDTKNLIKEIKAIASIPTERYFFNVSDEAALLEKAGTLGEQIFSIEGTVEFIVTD
The assay can be described thus: SPR (Biacore 2000), antibody captured, GST-α2 I domain in solution. For orientation: In SPR one partner is held on a chip, and binding of the other changes the refractive index at the surface.

Assay [3] addresses T1, human platelet α2β1 integrin …. The assay can be described thus: equilibrium binding of Eu-labelled antibody to human platelet α2β1-coated plate, Scatchard. The procedure:
Wells in a 96-well microtiter plate were coated with platelet α2β1-integrin (custom-coated with human platelet α2β1 by GTI Inc., WI) and then blocked with nonfat milk. […] After concentration in prewashed MicroSep concentrators [30-kDa cutoff; Pall Life Sciences at 9500 rpm (7000×g) in a JA-20 rotor (Beckman Instruments, Inc.] for 20 minutes at 4° C.), the antibody was adjusted to 4.0 mg/mL with PBS, 100 mM NaHCO₃, pH 9.3. The MAb/bicarbonate mixture (0.250 mL) was gently mixed into a vial containing 0.2 mg N¹-(p-isothiocyanatobenzyl)-diethylenetriamine-N¹,N²,N³,N³-tetraacetic acid chelated with Eu³⁺ (Eu-N1-ITC; Perkin Elmer Life Sciences) and incubated overnight at 4° C. without stirring. The labeled antibody mixture was applied to a PD-10 column (GE Biosciences, Piscataway, N.J.) pre-equilibrated with Running Buffer (50 mM Tris, pH 7.4 and 138 mM NaCl). Fractions (0.5 mL) were collected and assayed for total protein (Bradford reagent; Bio-Rad Laboratories, Hercules, Calif.) using a SpectraMax 384 absorbance plate reader and for europium after 1:10.000 dilution in DELFIA Enhancement Solution (Perkin-Elmer) by time-resolved fluorescence (TRF) using a Victor2 multi-label plate reader (Perkin Elmer). […]

The target is the same in assay [4]. The assay can be described thus: competition with Eu-humanized TMC-2206 on α2β1-coated plates. The source says:
The inhibition curves were fitted with the “one site competition” model using Prism software (GraphPad, Inc.) to obtain IC₅₀ values and to calculate the Kᵢ using the equation of Cheng and Prusoff (1973) and the respective values for KD from above.
The cloning of the human, rhesus macaque, rat, and mouse α2 I domains were described in Example 12. Cynomolgus and additional rhesus monkey α2 I domains were cloned from cDNA derived from total RNA extracted from skin tissue (MediCorp, Inc., Montreal, QC).

Assay [5] shares this target. The assay can be described thus: competition with Eu-TMC-2206 on human platelet α2β1-coated plate. The protocol:
Exemplary IgG1 antibodies have a hVH 14.0 γ heavy chain (SEQ ID NO:181) or a hVH12.0 γ1 heavy chain (SEQ ID NO:182) and a hVL10.0Q light chain (SEQ ID NO:178). Exemplary IgG4 antibodies have a hVH14.0 γ4 heavy chain (SEQ ID NO:174) or a hVH12.0 γ4 heavy chain (SEQ ID NO:176) and a hVL 10.0Q light chain (SEQ ID NO:178). Purified antibodies were tested in the competition assay to compare potency by Kᵢ values as well as in the cell adhesion to collagen assay, where potency is measured as EC₅₀ values.

In assay [6] the target is human α2β1 integrin on human cells (platelets, leukocytes, HT1080) (human, UniProt P17301 30-1181; P05556 21-798). The assay can be described thus: cell-based or functional assay.
Assay [7] has as its target T2, GST-human α2 I domain fusion protein. The assay can be described thus: Eu-TMC-2206 on immobilized GST-α2 I domain at 37 °C, Scatchard.

B1: Humanized TMC-2206 (hIgG4/κ VH12.0/VL10.0Q) (antibody)
heavy: not shown
light: DFVMTQSPAFLSVTPGEKVTITCSAQSSVNYIHWYQQKPDQAPKKLIYDTSKLASGVPSRFSGSGSGTDYTFTISSLEAEDAATYYCQQWTTNPLTFGQGTKVEIKRTVAAPSVFIFPPSDEQLKSGTASVVCLLNNFYPREAKVQWKVDNALQSGNSQESVTEQDSKDSTYSLSSTLTLSKADYEKHKVYACEVTHQGLSSPVTKSFNRGEC
notes: labelled with Eu or Alexa-488 in some assays
One may read the Ki as the equilibrium dissociation constant of an inhibitor or competing ligand from its target. Low values mean a stronger hold on the target, high ones a looser hold on the target. In general, Kd refers to the concentration at which binding is half-saturated. Higher therefore signals lower affinity. For orientation: koff means the rate constant with which the complex falls apart. What is called kon is a measure of how fast the partners come together. Read a low kon as slower complex formation. Take B1: the inhibition constant (Ki) in assay [1] was found to be 410 pM; in assay [4], 340 pM; in assay [5] it was 270 pM. Further, the Kd in assay [2] stood at 2300 pM; in assay [3] it was 1290 pM. In assay [2], this molecule had a koff of 0.00082 s⁻¹. In addition, the kon in assay [2] was 350000 M⁻¹ s⁻¹. Also, the “EC50 (nm), human platelets on human placenta Type I collagen (n = 1)” value in assay [6] came to 13100 pM.

B2: TMC-2206 (antibody, mouse IgG1, V domains shown)
VH: QVQLKESGPGLVAPSQSLSITCTVSGFSLTNYGIHWVRQPPGKGLEWLGVIWARGFTNYNSALMSRLIITKDNSQSQVFLKMNSLQPDDSATYFCARANDGVYYAMDYWGQGTSVTVSS
VL: QFVLTQSPAFLSASPGEKVTMTCSANSSVNYIHWYQQKSGTSPKKWIYDTSKLASGVPVRFSGSGSGTSYSLTISSMETEDAATYYCQQWTTNPLTFGAGTRVELK
notes: murine IgG1/κ secreted by hybridoma BHA2.1; labelled with Eu-N1-ITC where used as tracer; also called BHA2.1
Regarding B2, the Kd is 200 pM in assay [7], 2900 pM in assay [2] and 720 pM in assay [3]. Further, the Ki worked out at 210 pM in assay [1], 140 pM in assay [4] and 220 pM in assay [5]. For the same molecule, the off-rate constant (koff) in assay [2] turned out to be 0.0011 s⁻¹. Besides, the kon in assay [2] was 380000 M⁻¹ s⁻¹. Besides, the “EC50 (nm), human platelets on human placenta Type I collagen (n = 1)” value in assay [6] amounted to 8440 pM.
